± gives the uncertainty stated by the source.
B1: Histone H1t, residues 44 to 112; numbered along this chain, P22492 (parent)
chain: VSKLITEALSVSQERVGMSLVALKKALAAAGYDVEKNNSRIKLSLKSLVNKGILVQTRGTGASGSFKLS

Variants of: B1
Test: abundance fitness (aPCA) (normalised: wild type 0, dead -1); higher = more abundant; growth selection in yeast, the domain comes from the species named
Settings: Homo sapiens

Row | Variant | abundance fitness
1 | VSKLITEALSVSQERVGMSLVALKGALAAAGYDVEKNNSRIKLSLKSLVNKGILVQTRGTGASGSFKLS [K25G] | -0.231 ± 0.04
2 | VSKLITEALSVSQERVGMSLVALKIALAAAGYDVEKNNSRIKLSLKSLVNKGILVQTRGTGASGSFKLS [K25I] | -0.697 ± 0.058
3 | VSKLITEALSVSQERVGMSLVALKLALAAAGYDVEKNNSRIKLSLKSLVNKGILVQTRGTGASGSFKLS [K25L] | -0.862 ± 0.042
4 | VSKLITEALSVSQERVGMSLVALKMALAAAGYDVEKNNSRIKLSLKSLVNKGILVQTRGTGASGSFKLS [K25M] | -0.785 ± 0.057
5 | VSKLITEALSVSQERVGMSLVALKHALAAAGYDVEKNNSRIKLSLKSLVNKGILVQTRGTGASGSFKLS [K25H] | -0.325 ± 0.065
6 | VSKLITEALSVSQERVGMSLVALKFALAAAGYDVEKNNSRIKLSLKSLVNKGILVQTRGTGASGSFKLS [K25F] | -0.892 ± 0.064
7 | VSKLITEALSVSQERVGMSLVALKEALAAAGYDVEKNNSRIKLSLKSLVNKGILVQTRGTGASGSFKLS [K25E] | -0.085 ± 0.048
8 | VSKLITEALSVSQERVGMSLVALKAALAAAGYDVEKNNSRIKLSLKSLVNKGILVQTRGTGASGSFKLS [K25A] | -0.225 ± 0.048
9 | VSKLITEALSVSQERVGMSLVALKSALAAAGYDVEKNNSRIKLSLKSLVNKGILVQTRGTGASGSFKLS [K25S] | -0.23 ± 0.046
10 | VSKLITEALSVSQERVGMSLVALKYALAAAGYDVEKNNSRIKLSLKSLVNKGILVQTRGTGASGSFKLS [K25Y] | -0.827 ± 0.077
11 | VSKLITEALSVSQERVGMSLVALKTALAAAGYDVEKNNSRIKLSLKSLVNKGILVQTRGTGASGSFKLS [K25T] | -0.352 ± 0.062
12 | VSKLITEALSVSQERVGMSLVALKNALAAAGYDVEKNNSRIKLSLKSLVNKGILVQTRGTGASGSFKLS [K25N] | -0.171 ± 0.061
13 | VSKLITEALSVSQERVGMSLVALKDALAAAGYDVEKNNSRIKLSLKSLVNKGILVQTRGTGASGSFKLS [K25D] | -0.158 ± 0.058
14 | VSKLITEALSVSQERVGMSLVALKWALAAAGYDVEKNNSRIKLSLKSLVNKGILVQTRGTGASGSFKLS [K25W] | -0.602 ± 0.064
15 | VSKLITEALSVSQERVGMSLVALKVALAAAGYDVEKNNSRIKLSLKSLVNKGILVQTRGTGASGSFKLS [K25V] | -0.627 ± 0.032
16 | VSKLITEALSVSQERVGMSLVALKPALAAAGYDVEKNNSRIKLSLKSLVNKGILVQTRGTGASGSFKLS [K25P] | -1.34 ± 0.21
17 | VSKLITEALSVSQERVGMSLVASKKALAAAGYDVEKNNSRIKLSLKSLVNKGILVQTRGTGASGSFKLS [L23S] | -1 ± 0.06
18 | VSKLITEALSVSQERVGMSLVAVKKALAAAGYDVEKNNSRIKLSLKSLVNKGILVQTRGTGASGSFKLS [L23V] | -0.076 ± 0.051
19 | VSKLITEALSVSQERVGMSLVAYKKALAAAGYDVEKNNSRIKLSLKSLVNKGILVQTRGTGASGSFKLS [L23Y] | -0.933 ± 0.088
20 | VSKLITEALSVSQERVGMSLVAWKKALAAAGYDVEKNNSRIKLSLKSLVNKGILVQTRGTGASGSFKLS [L23W] | -0.541 ± 0.061

Row | Variant | abundance fitness
21 | VSKLITEALSVSQERVGMSLVARKKALAAAGYDVEKNNSRIKLSLKSLVNKGILVQTRGTGASGSFKLS [L23R] | -0.942 ± 0.089
22 | VSKLITEALSVSQERVGMSLVALSKALAAAGYDVEKNNSRIKLSLKSLVNKGILVQTRGTGASGSFKLS [K24S] | -0.656 ± 0.058
23 | VSKLITEALSVSQERVGMSLVALDKALAAAGYDVEKNNSRIKLSLKSLVNKGILVQTRGTGASGSFKLS [K24D] | -1.33 ± 0.21
24 | VSKLITEALSVSQERVGMSLVALIKALAAAGYDVEKNNSRIKLSLKSLVNKGILVQTRGTGASGSFKLS [K24I] | -0.738 ± 0.079
25 | VSKLITEALSVSQERVGMSLVALFKALAAAGYDVEKNNSRIKLSLKSLVNKGILVQTRGTGASGSFKLS [K24F] | -0.494 ± 0.08
26 | VSKLITEALSVSQERVGMSLVALEKALAAAGYDVEKNNSRIKLSLKSLVNKGILVQTRGTGASGSFKLS [K24E] | -0.363 ± 0.054
27 | VSKLITEALSVSQERVGMSLVALNKALAAAGYDVEKNNSRIKLSLKSLVNKGILVQTRGTGASGSFKLS [K24N] | -0.359 ± 0.056
28 | VSKLITEALSVSQERVGMSLVALCKALAAAGYDVEKNNSRIKLSLKSLVNKGILVQTRGTGASGSFKLS [K24C] | -0.579 ± 0.091
29 | VSKLITEALSVSQERVGMSLVALGKALAAAGYDVEKNNSRIKLSLKSLVNKGILVQTRGTGASGSFKLS [K24G] | -0.485 ± 0.071
30 | VSKLITEALSVSQERVGMSLVALRKALAAAGYDVEKNNSRIKLSLKSLVNKGILVQTRGTGASGSFKLS [K24R] | -0.161 ± 0.045
31 | VSKLITEALSVSQERVGMSLVALPKALAAAGYDVEKNNSRIKLSLKSLVNKGILVQTRGTGASGSFKLS [K24P] | -1.22 ± 0.12
32 | VSKLITEALSVSQERVGMSLVALYKALAAAGYDVEKNNSRIKLSLKSLVNKGILVQTRGTGASGSFKLS [K24Y] | -0.164 ± 0.069
33 | VSKLITEALSVSQERVGMSLVALWKALAAAGYDVEKNNSRIKLSLKSLVNKGILVQTRGTGASGSFKLS [K24W] | -0.533 ± 0.064
34 | VSKLITEALSVSQERVGMSLVALTKALAAAGYDVEKNNSRIKLSLKSLVNKGILVQTRGTGASGSFKLS [K24T] | -0.267 ± 0.047
35 | VSKLITEALSVSQERVGMSLVALLKALAAAGYDVEKNNSRIKLSLKSLVNKGILVQTRGTGASGSFKLS [K24L] | -0.418 ± 0.039
36 | VSKLITEALSVSQERVGMSLVALMKALAAAGYDVEKNNSRIKLSLKSLVNKGILVQTRGTGASGSFKLS [K24M] | -0.295 ± 0.046
37 | VSKLITEALSVSQERVGMSLVALHKALAAAGYDVEKNNSRIKLSLKSLVNKGILVQTRGTGASGSFKLS [K24H] | -0.694 ± 0.12
38 | VSKLITEALSVSQERVGMSLVALKKCLAAAGYDVEKNNSRIKLSLKSLVNKGILVQTRGTGASGSFKLS [A26C] | -0.14 ± 0.064
39 | VSKLITEALSVSQERVGMSLVALKKDLAAAGYDVEKNNSRIKLSLKSLVNKGILVQTRGTGASGSFKLS [A26D] | -0.954 ± 0.23
